# Experimental data as given in article PMC12416549 (2024).
# T1: TNFR1 (Homo sapiens, UniProt P19438)
# T1 chain: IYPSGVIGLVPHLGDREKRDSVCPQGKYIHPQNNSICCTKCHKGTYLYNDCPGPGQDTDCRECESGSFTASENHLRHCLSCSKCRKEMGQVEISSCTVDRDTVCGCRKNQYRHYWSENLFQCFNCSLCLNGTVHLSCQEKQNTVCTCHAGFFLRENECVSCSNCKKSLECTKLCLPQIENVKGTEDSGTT
# Biological target: T1, TNFR1
# Assay: yeast display SC50
row,Binder,apparent Kd (screen)
1,A102V (designed binder) MTLQELLREEALRRAEAEAFRYALELLAEKFPEQKEYLLDLAEEIESQIRSLSGVDVEDVRKFLDKEWAWVKELLAEHPAELAEVEAARAARLAELRAEVEVKVAA,539 pM
2,A90T (designed binder) MTLQELLREEALRRAEAEAFRYALELLAEKFPEQKEYLLDLAEEIESQIRSLSGVDVEDVRKFLDKEWAWVKELLAEHPAELAEVEAARTARLAELRAEVEAKVAA,790 pM
3,E101I (designed binder) MTLQELLREEALRRAEAEAFRYALELLAEKFPEQKEYLLDLAEEIESQIRSLSGVDVEDVRKFLDKEWAWVKELLAEHPAELAEVEAARAARLAELRAEVIAKVAA,490 pM
4,A91L (designed binder) MTLQELLREEALRRAEAEAFRYALELLAEKFPEQKEYLLDLAEEIESQIRSLSGVDVEDVRKFLDKEWAWVKELLAEHPAELAEVEAARALRLAELRAEVEAKVAA,539 pM
5,R97F (designed binder) MTLQELLREEALRRAEAEAFRYALELLAEKFPEQKEYLLDLAEEIESQIRSLSGVDVEDVRKFLDKEWAWVKELLAEHPAELAEVEAARAARLAELFAEVEAKVAA,490 pM
6,L41S (designed binder) MTLQELLREEALRRAEAEAFRYALELLAEKFPEQKEYLLDSAEEIESQIRSLSGVDVEDVRKFLDKEWAWVKELLAEHPAELAEVEAARAARLAELRAEVEAKVAA,1160 pM
7,L39N (designed binder) MTLQELLREEALRRAEAEAFRYALELLAEKFPEQKEYLNDLAEEIESQIRSLSGVDVEDVRKFLDKEWAWVKELLAEHPAELAEVEAARAARLAELRAEVEAKVAA,2480 pM
8,V60K (designed binder) MTLQELLREEALRRAEAEAFRYALELLAEKFPEQKEYLLDLAEEIESQIRSLSGVDVEDKRKFLDKEWAWVKELLAEHPAELAEVEAARAARLAELRAEVEAKVAA,3000 pM
9,A76T (designed binder) MTLQELLREEALRRAEAEAFRYALELLAEKFPEQKEYLLDLAEEIESQIRSLSGVDVEDVRKFLDKEWAWVKELLTEHPAELAEVEAARAARLAELRAEVEAKVAA,405 pM
10,K66Y (designed binder) MTLQELLREEALRRAEAEAFRYALELLAEKFPEQKEYLLDLAEEIESQIRSLSGVDVEDVRKFLDYEWAWVKELLAEHPAELAEVEAARAARLAELRAEVEAKVAA,490 pM
11,A91P (designed binder) MTLQELLREEALRRAEAEAFRYALELLAEKFPEQKEYLLDLAEEIESQIRSLSGVDVEDVRKFLDKEWAWVKELLAEHPAELAEVEAARAPRLAELRAEVEAKVAA,490 pM
12,F20I (designed binder) MTLQELLREEALRRAEAEAIRYALELLAEKFPEQKEYLLDLAEEIESQIRSLSGVDVEDVRKFLDKEWAWVKELLAEHPAELAEVEAARAARLAELRAEVEAKVAA,1050 pM
13,K30E (designed binder) MTLQELLREEALRRAEAEAFRYALELLAEEFPEQKEYLLDLAEEIESQIRSLSGVDVEDVRKFLDKEWAWVKELLAEHPAELAEVEAARAARLAELRAEVEAKVAA,490 pM
14,V100D (designed binder) MTLQELLREEALRRAEAEAFRYALELLAEKFPEQKEYLLDLAEEIESQIRSLSGVDVEDVRKFLDKEWAWVKELLAEHPAELAEVEAARAARLAELRAEDEAKVAA,593 pM
15,A19L (designed binder) MTLQELLREEALRRAEAELFRYALELLAEKFPEQKEYLLDLAEEIESQIRSLSGVDVEDVRKFLDKEWAWVKELLAEHPAELAEVEAARAARLAELRAEVEAKVAA,2050 pM
16,A15G (designed binder) MTLQELLREEALRRGEAEAFRYALELLAEKFPEQKEYLLDLAEEIESQIRSLSGVDVEDVRKFLDKEWAWVKELLAEHPAELAEVEAARAARLAELRAEVEAKVAA,539 pM
17,F20Q (designed binder) MTLQELLREEALRRAEAEAQRYALELLAEKFPEQKEYLLDLAEEIESQIRSLSGVDVEDVRKFLDKEWAWVKELLAEHPAELAEVEAARAARLAELRAEVEAKVAA,2250 pM
18,A11R (designed binder) MTLQELLREERLRRAEAEAFRYALELLAEKFPEQKEYLLDLAEEIESQIRSLSGVDVEDVRKFLDKEWAWVKELLAEHPAELAEVEAARAARLAELRAEVEAKVAA,490 pM

row,Binder,apparent Kd (screen)
1,L27Y (designed binder) MTLQELLREEALRRAEAEAFRYALELYAEKFPEQKEYLLDLAEEIESQIRSLSGVDVEDVRKFLDKEWAWVKELLAEHPAELAEVEAARAARLAELRAEVEAKVAA,539 pM
2,S47R (designed binder) MTLQELLREEALRRAEAEAFRYALELLAEKFPEQKEYLLDLAEEIERQIRSLSGVDVEDVRKFLDKEWAWVKELLAEHPAELAEVEAARAARLAELRAEVEAKVAA,490 pM
3,A69F (designed binder) MTLQELLREEALRRAEAEAFRYALELLAEKFPEQKEYLLDLAEEIESQIRSLSGVDVEDVRKFLDKEWFWVKELLAEHPAELAEVEAARAARLAELRAEVEAKVAA,956 pM
4,A105G (designed binder) MTLQELLREEALRRAEAEAFRYALELLAEKFPEQKEYLLDLAEEIESQIRSLSGVDVEDVRKFLDKEWAWVKELLAEHPAELAEVEAARAARLAELRAEVEAKVGA,869 pM
5,Q34H (designed binder) MTLQELLREEALRRAEAEAFRYALELLAEKFPEHKEYLLDLAEEIESQIRSLSGVDVEDVRKFLDKEWAWVKELLAEHPAELAEVEAARAARLAELRAEVEAKVAA,869 pM
6,A17Y (designed binder) MTLQELLREEALRRAEYEAFRYALELLAEKFPEQKEYLLDLAEEIESQIRSLSGVDVEDVRKFLDKEWAWVKELLAEHPAELAEVEAARAARLAELRAEVEAKVAA,593 pM
7,Q48D (designed binder) MTLQELLREEALRRAEAEAFRYALELLAEKFPEQKEYLLDLAEEIESDIRSLSGVDVEDVRKFLDKEWAWVKELLAEHPAELAEVEAARAARLAELRAEVEAKVAA,22200 pM
8,E18N (designed binder) MTLQELLREEALRRAEANAFRYALELLAEKFPEQKEYLLDLAEEIESQIRSLSGVDVEDVRKFLDKEWAWVKELLAEHPAELAEVEAARAARLAELRAEVEAKVAA,490 pM
9,K103P (designed binder) MTLQELLREEALRRAEAEAFRYALELLAEKFPEQKEYLLDLAEEIESQIRSLSGVDVEDVRKFLDKEWAWVKELLAEHPAELAEVEAARAARLAELRAEVEAPVAA,539 pM
10,Q34K (designed binder) MTLQELLREEALRRAEAEAFRYALELLAEKFPEKKEYLLDLAEEIESQIRSLSGVDVEDVRKFLDKEWAWVKELLAEHPAELAEVEAARAARLAELRAEVEAKVAA,653 pM
11,E16S (designed binder) MTLQELLREEALRRASAEAFRYALELLAEKFPEQKEYLLDLAEEIESQIRSLSGVDVEDVRKFLDKEWAWVKELLAEHPAELAEVEAARAARLAELRAEVEAKVAA,653 pM
12,F20R (designed binder) MTLQELLREEALRRAEAEARRYALELLAEKFPEQKEYLLDLAEEIESQIRSLSGVDVEDVRKFLDKEWAWVKELLAEHPAELAEVEAARAARLAELRAEVEAKVAA,10400 pM
13,L93N (designed binder) MTLQELLREEALRRAEAEAFRYALELLAEKFPEQKEYLLDLAEEIESQIRSLSGVDVEDVRKFLDKEWAWVKELLAEHPAELAEVEAARAARNAELRAEVEAKVAA,790 pM
14,L52T (designed binder) MTLQELLREEALRRAEAEAFRYALELLAEKFPEQKEYLLDLAEEIESQIRSTSGVDVEDVRKFLDKEWAWVKELLAEHPAELAEVEAARAARLAELRAEVEAKVAA,593 pM
15,E44D (designed binder) MTLQELLREEALRRAEAEAFRYALELLAEKFPEQKEYLLDLAEDIESQIRSLSGVDVEDVRKFLDKEWAWVKELLAEHPAELAEVEAARAARLAELRAEVEAKVAA,7780 pM
16,L38F (designed binder) MTLQELLREEALRRAEAEAFRYALELLAEKFPEQKEYFLDLAEEIESQIRSLSGVDVEDVRKFLDKEWAWVKELLAEHPAELAEVEAARAARLAELRAEVEAKVAA,653 pM
17,L24V (designed binder) MTLQELLREEALRRAEAEAFRYAVELLAEKFPEQKEYLLDLAEEIESQIRSLSGVDVEDVRKFLDKEWAWVKELLAEHPAELAEVEAARAARLAELRAEVEAKVAA,653 pM
